Changes are numbered by the printed parent chain. Values belong to the binder of their own block, whether it stands above or below them.
Experiments:
[1] = target: siglec6 with C-terminal FLAG tag on Expi 293 cells (UniProt O43699); assay: flow cytometry, transfected Expi 293, 500 nM
[2] = target: siglec12 with C-terminal FLAG tag on Expi 293 cells (UniProt Q96PQ1); assay: flow cytometry, transfected Expi 293, 500 nM
[3] = target: human siglec12 (human) (UniProt Q96PQ1); assay: cell-based or functional assay
[4] = target: human siglec12 (human) (UniProt Q96PQ1); assay: FACS U937

Chain of siglec6 with C-terminal FLAG tag on Expi 293 cells (O43699 27-453 limits assumed): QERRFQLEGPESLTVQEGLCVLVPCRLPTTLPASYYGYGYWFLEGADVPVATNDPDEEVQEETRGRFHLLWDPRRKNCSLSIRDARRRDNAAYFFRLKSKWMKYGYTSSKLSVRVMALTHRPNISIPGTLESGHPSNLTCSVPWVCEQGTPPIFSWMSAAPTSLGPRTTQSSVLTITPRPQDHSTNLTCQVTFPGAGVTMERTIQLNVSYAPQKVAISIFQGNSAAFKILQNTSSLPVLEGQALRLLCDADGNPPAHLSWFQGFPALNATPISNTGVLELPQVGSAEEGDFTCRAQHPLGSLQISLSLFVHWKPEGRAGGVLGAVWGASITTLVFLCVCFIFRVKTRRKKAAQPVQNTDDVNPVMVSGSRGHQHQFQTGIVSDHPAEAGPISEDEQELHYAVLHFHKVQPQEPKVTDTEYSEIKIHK
Chain of siglec12 with C-terminal FLAG tag on Expi 293 cells (Q96PQ1 19-595): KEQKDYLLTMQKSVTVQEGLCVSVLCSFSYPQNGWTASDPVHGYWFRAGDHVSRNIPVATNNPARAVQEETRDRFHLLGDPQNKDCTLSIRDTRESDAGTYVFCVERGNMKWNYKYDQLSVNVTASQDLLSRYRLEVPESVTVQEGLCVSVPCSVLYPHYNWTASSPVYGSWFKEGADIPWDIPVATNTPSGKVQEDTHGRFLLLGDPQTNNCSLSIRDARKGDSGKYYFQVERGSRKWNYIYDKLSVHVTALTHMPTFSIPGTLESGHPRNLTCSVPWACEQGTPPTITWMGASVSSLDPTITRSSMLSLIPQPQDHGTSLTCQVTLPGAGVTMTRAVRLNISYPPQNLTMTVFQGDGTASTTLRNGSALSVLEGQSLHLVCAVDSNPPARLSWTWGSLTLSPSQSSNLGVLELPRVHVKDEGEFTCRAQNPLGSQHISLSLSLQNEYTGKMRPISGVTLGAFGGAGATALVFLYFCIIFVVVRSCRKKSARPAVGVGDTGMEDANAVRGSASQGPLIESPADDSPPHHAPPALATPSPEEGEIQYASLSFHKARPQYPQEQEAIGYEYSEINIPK

B3: S0040 (antibody, V domains shown)
VH: QVQLVQSGAEVKKPGASVKVSCKASGYTFTSYDINWVRQATGQGLEWMGWMNPNSGNTGYAQNFQGRVTMTRNTSINTAYMELSSLRSEDTAVYYCTRGGPTLVRGVIIRDAFDFWGQGTMVTVSS
VL: EIVMTQSPATLSVSPGERATLSCRASQSVSNSFAWYQQKPGQAPRLLIYGAFTRATGIPARFSGSGSGTEFTLTISSLQSEDFAVYYCQQYKTWPLTFGGGTKVEIKR
Flow % Gated [4]: 6%
Flow Fluor MFI [4]: 111

B5: S0023 (antibody, V domains shown)
VH: EVQLLESGGGLVQPGGSLRLSCAASGFTFSTFAMSWVRQAPGKGLEWVSTISGGGDSTYYADSVKGRFTISRDNSKNMMSLQMNSLRAVDTAVYYCVKGGGDEYFYYGMDVWGQGTTVTVSS
VL: DIQMTQSPSSLSASVGDRVTITCRASQGIRNDLGWYQQKPGKAPKRLIYSASSLQSGVPSRFSGSGSGTEFTLTISSLQPEDFATYYCLQHNSYPYTFGQGTPLDIKR
MFI [1]: 29.3
MFI [2]: 484
% Internalization at 2 hours, U937 cells [3]: 32%
Flow % Gated [4]: 3%
Flow Fluor MFI [4]: 93

Continued, values first:

MFI [1]: 29.8
MFI [2]: 912
% Internalization at 2 hours, U937 cells [3]: 58%
MFI of pH sensitive dye, Siglec12 complexes, 0 hours [3]: 20
MFI of pH sensitive dye, Siglec12 complexes, 4 hours [3]: 24.7
MFI of pH sensitive dye, Siglec12 complexes, 24 hours [3]: 26.5
Siglec12 % surface expression, 0 min [3]: 100%
Siglec12 % surface expression, 15 min [3]: 96%
Siglec12 % surface expression, 30 min [3]: 84%
Siglec12 % surface expression, 45 min [3]: 73%
Siglec12 % surface expression, 60 min [3]: 65%
Siglec12 % surface expression, 90 min [3]: 47%
Siglec12 % surface expression, 120 min [3]: 40%
Flow % Gated [4]: 79%
Flow Fluor MFI [4]: 368
B1: S0057 (antibody, V domains shown)
VH: QGQLVQSGAEVKKPGASVKVSCKASGYTFNNYGISWVRQAPGQGLEWMGWISAYNGFTRSTQKFQGRVTLTTDTSTSTAHMELRSLRSDDTAAYYCARDGGDGFDPWGQGTLVTVSS
VL: EIVLTQSPATLSLSPGERATLSCRASQSVSSFLAWYQQKPGQAPRLLIFDASNRATGIPARFSGSGSGTDFTLTISSLEPEDFAVYYCQQRSNWITFGQGTRLEIKRA

MFI [1]: 25.7
MFI [2]: 538
% Internalization at 2 hours, U937 cells [3]: 66%
Flow % Gated [4]: 4%
Flow Fluor MFI [4]: 107
B2: S0042 (antibody, V domains shown)
VH: QVQLVQSGTEVKKPGASVKVSCKVSGYTLSDLSIHWVRQAPGKGLEWMGGFEPEDGEIIYAQKFQGRVIMTEDTSTDTAYMKLSSLRSEDTAVYYCATDKRYFDWLLSGFDYWGQGTLVTVSS
VL: DIQLTQSPSFLSASVGDRVTITCRASQGISSYLAWYQQKPGKAPKLLIFAASTLQSGVPSRFSGSGSGTEFTLTISSLQPEDFATYYCQRLHSYPRTFGQGTKVEIKRA

Flow % Gated [4]: 2%
Flow Fluor MFI [4]: 97
B4: S0103 (antibody, V domains shown)
VH: B3 VH with N73D, I76V, T97A, T102N
VL: B3 VL with T69I

— patent US20250019432A1
